Assay results from patent publication US20110010786A1 (published 2011).

Molecular target: T1, human factor VIII (human, UniProt P00451 20-2351)
T1 construct: also called FVIII
Experiment: Surface Plasmon Resonance

T1 sequence (P00451 20-2351 limits assumed): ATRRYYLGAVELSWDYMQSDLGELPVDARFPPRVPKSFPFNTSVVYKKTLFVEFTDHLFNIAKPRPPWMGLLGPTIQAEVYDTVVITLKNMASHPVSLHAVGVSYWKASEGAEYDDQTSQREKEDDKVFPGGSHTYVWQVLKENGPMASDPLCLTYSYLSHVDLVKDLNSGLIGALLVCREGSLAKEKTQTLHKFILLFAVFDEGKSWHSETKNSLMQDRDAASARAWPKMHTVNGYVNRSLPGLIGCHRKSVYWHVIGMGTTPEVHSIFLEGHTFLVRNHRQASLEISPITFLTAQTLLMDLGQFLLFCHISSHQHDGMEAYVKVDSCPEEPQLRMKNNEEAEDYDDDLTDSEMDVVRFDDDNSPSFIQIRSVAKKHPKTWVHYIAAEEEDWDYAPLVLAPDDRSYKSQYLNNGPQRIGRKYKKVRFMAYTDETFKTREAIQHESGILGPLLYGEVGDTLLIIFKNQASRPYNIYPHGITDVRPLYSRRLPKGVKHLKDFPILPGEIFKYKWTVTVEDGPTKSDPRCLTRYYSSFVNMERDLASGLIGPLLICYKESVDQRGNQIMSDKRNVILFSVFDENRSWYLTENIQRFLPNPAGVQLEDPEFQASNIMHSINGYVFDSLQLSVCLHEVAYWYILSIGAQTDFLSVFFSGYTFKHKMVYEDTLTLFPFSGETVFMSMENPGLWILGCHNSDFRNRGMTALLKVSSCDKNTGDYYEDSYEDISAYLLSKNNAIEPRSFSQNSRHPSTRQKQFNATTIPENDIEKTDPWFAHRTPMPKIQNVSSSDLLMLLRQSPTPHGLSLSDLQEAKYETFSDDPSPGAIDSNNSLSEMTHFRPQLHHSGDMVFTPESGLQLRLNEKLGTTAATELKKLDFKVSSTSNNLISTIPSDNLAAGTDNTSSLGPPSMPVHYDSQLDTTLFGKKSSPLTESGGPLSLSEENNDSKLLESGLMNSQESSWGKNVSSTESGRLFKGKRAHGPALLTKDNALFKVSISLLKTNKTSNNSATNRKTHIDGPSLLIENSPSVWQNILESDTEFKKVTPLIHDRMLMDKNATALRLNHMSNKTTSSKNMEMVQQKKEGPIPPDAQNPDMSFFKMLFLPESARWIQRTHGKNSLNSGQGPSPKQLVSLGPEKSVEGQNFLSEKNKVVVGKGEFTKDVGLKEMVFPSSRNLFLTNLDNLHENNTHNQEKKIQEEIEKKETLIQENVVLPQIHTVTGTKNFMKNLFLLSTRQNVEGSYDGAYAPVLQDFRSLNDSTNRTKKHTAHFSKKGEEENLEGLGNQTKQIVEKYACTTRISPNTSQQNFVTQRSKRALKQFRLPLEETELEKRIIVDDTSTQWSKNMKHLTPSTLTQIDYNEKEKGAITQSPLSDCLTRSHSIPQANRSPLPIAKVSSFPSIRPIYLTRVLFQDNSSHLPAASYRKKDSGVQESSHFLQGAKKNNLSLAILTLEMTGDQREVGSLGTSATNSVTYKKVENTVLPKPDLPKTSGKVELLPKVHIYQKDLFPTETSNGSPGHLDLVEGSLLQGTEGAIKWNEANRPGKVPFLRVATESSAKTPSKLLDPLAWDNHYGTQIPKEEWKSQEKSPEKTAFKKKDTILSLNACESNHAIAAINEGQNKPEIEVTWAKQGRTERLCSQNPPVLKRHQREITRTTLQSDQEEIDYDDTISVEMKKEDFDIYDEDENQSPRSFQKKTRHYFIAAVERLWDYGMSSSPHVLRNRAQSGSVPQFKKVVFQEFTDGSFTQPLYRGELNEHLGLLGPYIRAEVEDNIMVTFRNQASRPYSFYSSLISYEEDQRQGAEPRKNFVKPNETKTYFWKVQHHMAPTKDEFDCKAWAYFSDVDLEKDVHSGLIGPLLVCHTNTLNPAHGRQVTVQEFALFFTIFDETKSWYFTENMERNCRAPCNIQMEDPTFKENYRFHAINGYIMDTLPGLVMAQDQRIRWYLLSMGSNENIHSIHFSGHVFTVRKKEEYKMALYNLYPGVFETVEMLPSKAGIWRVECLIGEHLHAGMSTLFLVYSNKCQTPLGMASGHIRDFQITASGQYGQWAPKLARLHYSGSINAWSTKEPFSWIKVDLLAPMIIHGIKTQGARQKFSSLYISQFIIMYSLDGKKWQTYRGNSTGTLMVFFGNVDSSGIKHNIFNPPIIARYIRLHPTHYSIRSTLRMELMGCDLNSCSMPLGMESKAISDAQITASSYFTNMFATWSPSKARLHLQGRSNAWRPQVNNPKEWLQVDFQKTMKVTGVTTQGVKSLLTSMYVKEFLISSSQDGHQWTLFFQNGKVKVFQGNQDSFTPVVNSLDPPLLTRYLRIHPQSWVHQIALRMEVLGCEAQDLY

B1: human monoclonal antibody BO2C11 (antibody, V domains shown)
VH: QVQLVQSGAEVKKPGASVKVSCKVSGYTLTELPVHWVRQAPGKGLEWVGSFDPESGESIYAREFQGSVTMTADTSTDIAYMELSSLRSDDTAVYYCAVPDPDAFDIWGQGTMVTVSS
VL: EIALTQSPGTLSLSPGERATLSCRASQSFSSSYLAWYQQKPGQAPRLLIYGASTRATGIPDRFSGSGSGTDFTLTISRLEPEDFAVYYCQKYGTSAITFGQGTRLEIK
notes: also called B02C11
B1 showed a koff of no more than 1e-05 s⁻¹.
